Paper PMC10985028 (Acta Pharmaceutica Sinica. B, 2024)

Target: T1, HA-tagged USP48 (human, UniProt Q86UV5 1-1035)
T1 sequence (looked up): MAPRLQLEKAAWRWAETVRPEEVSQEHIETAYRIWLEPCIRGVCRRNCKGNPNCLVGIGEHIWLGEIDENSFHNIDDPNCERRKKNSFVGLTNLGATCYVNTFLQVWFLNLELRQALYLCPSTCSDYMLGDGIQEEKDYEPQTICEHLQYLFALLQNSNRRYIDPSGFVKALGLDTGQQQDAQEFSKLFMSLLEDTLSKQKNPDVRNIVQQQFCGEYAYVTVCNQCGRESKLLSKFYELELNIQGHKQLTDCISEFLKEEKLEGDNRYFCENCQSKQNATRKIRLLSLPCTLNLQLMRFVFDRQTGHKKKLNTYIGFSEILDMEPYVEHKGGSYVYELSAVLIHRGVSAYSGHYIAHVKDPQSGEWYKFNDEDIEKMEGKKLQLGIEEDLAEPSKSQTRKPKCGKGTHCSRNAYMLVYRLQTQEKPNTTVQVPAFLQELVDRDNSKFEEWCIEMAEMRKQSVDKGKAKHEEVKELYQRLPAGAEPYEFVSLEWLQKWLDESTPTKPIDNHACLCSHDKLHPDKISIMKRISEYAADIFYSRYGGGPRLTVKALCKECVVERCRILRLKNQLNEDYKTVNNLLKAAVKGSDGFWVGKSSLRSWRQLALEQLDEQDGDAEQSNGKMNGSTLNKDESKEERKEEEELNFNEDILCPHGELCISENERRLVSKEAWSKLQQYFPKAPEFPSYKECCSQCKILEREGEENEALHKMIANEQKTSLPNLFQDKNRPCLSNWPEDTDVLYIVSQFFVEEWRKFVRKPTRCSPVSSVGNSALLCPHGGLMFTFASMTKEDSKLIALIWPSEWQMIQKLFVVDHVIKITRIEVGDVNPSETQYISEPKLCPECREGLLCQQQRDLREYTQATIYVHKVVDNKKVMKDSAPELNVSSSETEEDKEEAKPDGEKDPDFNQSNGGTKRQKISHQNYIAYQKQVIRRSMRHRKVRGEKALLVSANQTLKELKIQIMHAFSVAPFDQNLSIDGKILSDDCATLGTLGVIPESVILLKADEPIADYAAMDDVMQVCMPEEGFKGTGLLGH
Experiment: pull-down

binding result: binds
B1: GST-HMGA2 (natural protein, human, UniProt P52926 1-109, looked up)
chain: MSARGEGAGQPSTSAQGQPAAPAPQKRGRGRPRKQQQEPTGEPSPKRPRGRPKGSKNKSPSKAAQKKAEATGEKRPRGRPRKWPQQVVQKKPAQEETEETSSQESAEED
